# Measurements: paper doi:10.1101/2024.02.16.580631 (bioRxiv, 2024)
# Target: the molecule itself
# Assay: crystal structure
protein,measurement,value
"Nucleoside diphosphate kinase B (NDPKB), human (enzyme, phosphorylated histidine at 118 (His 118-P) in the crystal) ANLERTFIAIKPDGVQRGLVGEIIKRFEQKGFRLVAMKFLRASEEHLKQHYIDLKDRPFFPGLVKYMNSGPVVAMVWEGLNVVKTGRVMLGETNPADSKPGTIRGDFCIQVGRNIIHGSDSVKSAEKEISLWFKPEELVDYKSCAHDWVYE",stoichiometry N,6
